These results are taken from patent CN117886936A.

The test has as its target hCD47-ECD-his (human) (UniProt Q08722). The test is described as follows: ELISA on coated human CD47-his after pre-incubating the antibody with human red blood cells (1E8/well). On the technique in general: In an ELISA, binding on a coated surface is turned into a signal by an enzyme label.
Sequence of UniProt Q08722 (Q08722 other isoform, or with tags, fused parts or gaps): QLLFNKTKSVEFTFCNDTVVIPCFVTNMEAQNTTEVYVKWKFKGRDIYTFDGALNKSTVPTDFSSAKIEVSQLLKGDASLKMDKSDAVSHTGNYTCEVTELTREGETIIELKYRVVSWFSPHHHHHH

One may read the EC50 as the concentration needed to bring the measured effect to its halfway point. A low value points to higher potency in that assay. In turn, ALX148 registered an EC50 of 3.15 µg/mL.
